Experimental data as given in paper PMC8675521, “Improved methanol tolerance of Rhizomucor miehei lipase based on N‑glycosylation within the α-helix region and its application in biodiesel production” (Biotechnology for Biofuels, 2021).
Where a chain is given by its changes, count along the chain named. In names and notes the source's numbering stands.

Substrate: CCCCCCCCCCCCCCCC(=O)Oc1ccc([N+](=O)[O-])cc1
Assay: purified protein
Type: biochemical, Rhizomucor miehei
Details: 50 mM PBS pH 8.0, 40 °C, 5 min
[1] = N115, made on N9A/N59A template, N-glycosylated
[2] = propeptide N-glycosylation sites removed
[3] = N260 [sic], made on N9A/N59A template, N-glycosylated
[4] = N218, made on N9A/N59A template, N-glycosylated
[5] = printed N183, made on N9A/N59A template, N-glycosylated
[6] = N93 [sic], made on N9A/N59A template, N-glycosylated

B1: ProRML (Rhizomucor miehei lipase with propeptide) (Rhizomucor miehei) (protein)
chain: AVPIKRQSNSTVDSLPPLIPSRTSAPSSSPSTTDPEAPAMSRNGPLPSDVETKYGMALNATSYPDSVVQAMSIDGGIRAATSQEINELTYYTTLSANSYCRTVIPGATWDCIHCDATEDLKIIKTWSTLIYDTNAMVARGDSEKTIYIVFRGSSSIRNWIADLTFVPVSYPPVSGTKVHKGFLDSYGEVQNELVATVLDQFKQYPSYKVAVTGHSLGGATALLCALDLYQREEGLSSSNLFLYTQGQPRVGDPAFANYVVSTGIPYRRTVNERDIVPHLPPAAFGFLHAGEEYWITDNSPETVQVCTSDLETSDCSNSIVPFTSVLDHLSYFGINTGLCT
notes: propeptide plus mature peptide, plasmid pPIC9K (alpha-factor secretion), Pichia pastoris GS115, HisTrap purified; about 40 kDa unglycosylated, mutants about 55 kDa N-glycosylated
- Km: 1160 µM
- kcat: 1.75 ± 0.0493 s⁻¹
- kcat/Km: 1510 ± 42.5 M⁻¹ s⁻¹

B2: ProRML (Rhizomucor miehei lipase with propeptide) (Rhizomucor miehei; D138N/N32A/N82A) (protein)
chain: B1 chain with N9A, N59A, D115N
notes: as for B1
- Km [1]: 640 µM
- kcat [1]: 7.26 ± 0.277 s⁻¹
- kcat/Km [1]: 11300 ± 432 M⁻¹ s⁻¹

B3: ProRML (Rhizomucor miehei lipase with propeptide) (Rhizomucor miehei; N32A/N82A) (protein)
chain: B1 chain with N9A, N59A
notes: as for B1
- Km [2]: 350 µM
- kcat [2]: 0.844 ± 0.0385 s⁻¹
- kcat/Km [2]: 2420 ± 111 M⁻¹ s⁻¹

B4: ProRML (Rhizomucor miehei lipase with propeptide) (Rhizomucor miehei; N32A/N82A/V283N) (protein)
chain: B1 chain with N9A, N59A, V260N
notes: as for B1
- Km [3]: 1250 µM
- kcat [3]: 4.89 ± 0.149 s⁻¹
- kcat/Km [3]: 3930 ± 120 M⁻¹ s⁻¹

B5: ProRML (Rhizomucor miehei lipase with propeptide) (Rhizomucor miehei; G241N/N32A/N82A) (protein)
chain: B1 chain with N9A, N59A, G218N
notes: as for B1
- Km [4]: 13200 µM
- kcat/Km [4]: 64800 ± 1970 M⁻¹ s⁻¹

B6: ProRML (Rhizomucor miehei lipase with propeptide) (Rhizomucor miehei; L206N/N32A/N82A) (protein)
chain: B1 chain with N9A, N59A, L183N
notes: as for B1
- Km [5]: 360 µM
- kcat [5]: 1.186 ± 0.00633 s⁻¹
- kcat/Km [5]: 3258 ± 17.5 M⁻¹ s⁻¹

B7: ProRML (Rhizomucor miehei lipase with propeptide) (Rhizomucor miehei; N32A/N82A/T116N) (protein)
chain: B1 chain with N9A, N59A, T93N
notes: as for B1
- Km [6]: 4700 µM
- kcat [6]: 63.6 ± 2.62 s⁻¹
- kcat/Km [6]: 13500 ± 558 M⁻¹ s⁻¹
